Measured values from patent US20020192704A1.

Target: IRR-Fc fusion protein (extracellular region of mouse insulin receptor-related receptor, 1-920th residues, fused to the H-chain C (constant) region (Fc region) of human IgG1) (mouse; human) (UniProt Q9WTL4)
Assay: SPR (BIACORE 2000), IRR-Fc immobilised on a CM5 chip, IR-Fc flow cell subtracted; about 10 ug of specimen in 200 ul of buffer

Sequence of IRR-Fc fusion protein (extracellular region of mouse insulin receptor-related receptor, 1-920th residues, fused to the H-chain C (constant) region (Fc region) of human IgG1) (mouse; human) (Q9WTL4 27-920 limits assumed, form in doubt): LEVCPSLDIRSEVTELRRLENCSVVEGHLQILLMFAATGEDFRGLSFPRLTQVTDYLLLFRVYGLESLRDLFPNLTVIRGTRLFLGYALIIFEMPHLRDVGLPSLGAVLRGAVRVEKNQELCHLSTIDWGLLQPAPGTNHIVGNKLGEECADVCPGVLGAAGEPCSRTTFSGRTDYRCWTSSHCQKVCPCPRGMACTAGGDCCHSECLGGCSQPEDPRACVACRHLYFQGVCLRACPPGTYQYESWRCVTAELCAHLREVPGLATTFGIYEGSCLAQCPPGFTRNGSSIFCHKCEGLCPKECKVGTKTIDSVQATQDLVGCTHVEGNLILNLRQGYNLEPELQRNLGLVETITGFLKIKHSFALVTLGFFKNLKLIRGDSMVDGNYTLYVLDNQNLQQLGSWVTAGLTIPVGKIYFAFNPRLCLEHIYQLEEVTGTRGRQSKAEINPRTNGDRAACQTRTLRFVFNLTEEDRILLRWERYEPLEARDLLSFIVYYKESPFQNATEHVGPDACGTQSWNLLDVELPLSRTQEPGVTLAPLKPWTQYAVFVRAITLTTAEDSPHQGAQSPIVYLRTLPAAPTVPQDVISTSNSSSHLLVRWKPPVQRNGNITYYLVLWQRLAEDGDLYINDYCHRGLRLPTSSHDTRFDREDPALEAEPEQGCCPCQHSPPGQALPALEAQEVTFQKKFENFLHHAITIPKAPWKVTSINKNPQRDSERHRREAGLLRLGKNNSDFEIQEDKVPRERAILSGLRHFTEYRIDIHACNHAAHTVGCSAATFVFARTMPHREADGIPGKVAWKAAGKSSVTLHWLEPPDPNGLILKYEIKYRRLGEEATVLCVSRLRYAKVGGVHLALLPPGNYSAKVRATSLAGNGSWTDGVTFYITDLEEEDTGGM

binding activity (RU; IRR-Fc binding value minus IR-Fc binding value) [RU] | Substance
13 | Peak 1 of the re-purified IRR ligand from rat C6 glioma cell culture supernatant (rat epithelin/granulin precursor fragments, SEQ ID NOS: 5 and 6) (from UniProt P23785 438-494)
21 | Peak 2 of the re-purified IRR ligand from rat C6 glioma cell culture supernatant (rat epithelin/granulin precursor fragment, SEQ ID NO: 4) (from UniProt P23785 439-494)
